Assay results: paper PMC3106293

What was measured:
Conditions in all cases: other: flavonoid as substrate; substrate inhibition equation (2); 37.0 °C
[1] = substrate: Oc1cc(O)c2c(c1)O[C@H](c1ccc(O)c(O)c1)[C@H](O)C2; test: not read
[2] = substrate: O=C1C[C@@H](c2ccc(O)c(O)c2)Oc2cc(O)cc(O)c21; test: not read
[3] = substrate: COc1ccc([C@@H]2CC(=O)c3c(O)cc(O)cc3O2)cc1O; test: not read
[4] = substrate: Oc1cc(O)c2c(c1)O[C@H](c1ccc(O)c(O)c1)[C@H](O)C2; test: Sulfation of flavonoids by recombinant hSULT1A1; type: in vitro ADME, human
[5] = substrate: O=C1C[C@@H](c2ccc(O)c(O)c2)Oc2cc(O)cc(O)c21; test: Sulfation of flavonoids by recombinant hSULT1A1; type: in vitro ADME, human

Protein | Km [1] | Vmax [1] | Vmax/Km [1] | Km [2] | Vmax [2] | Vmax/Km [2] | Km [3] | Km [4] | Vmax [4] | Vmax/Km [4] | Km [5] | Vmax [5] | Vmax/Km [5] | Vmax [3] | Vmax/Km [3]
hSULT1A3 (Homo sapiens) (protein) MELIQDTSRPPLEYVKGVPLIKYFAEALGPLQSFQARPDDLLINTYPKSGTTWVSQILDMIYQGGDLEKCNRAPIYVRVPFLEVNDPGEPSGLETLKDTPPPRLIKSHLPLALLPQTLLDQKVKVVYVARNPKDVAVSYYHFHRMEKAHPEPGTWDSFLEKFMAGEVSYGSWYQHVQEWWELSRTHPVLYLFYEDMKENPKREIQKILEFVGRSLPEETMDFMVQHTSFKEMKKNPMTNYTTVPQELMDHSISPFMRKGMAGDWKTTFTVAQNERFDADYAEKMAGCSLSFRSEL | 437 ± 10.1 µM | 0.442 µmol/min/mg | 1010 µL/min/mg | 193 ± 3.3 µM | 0.269 µmol/min/mg | 1390 µL/min/mg | 179 ± 3.7 µM | – | – | – | – | – | – | – | –
hSULT1A1 (Homo sapiens) (protein) MELIQDTSRPPLEYVKGVPLIKYFAEALGPLQSFQARPDDLLISTYPKSGTTWVSQILDMIYQGGDLEKCHRAPIFMRVPFLEFKAPGIPSGMETLKDTPAPRLLKTHLPLALLPQTLLDQKVKVVYVARNAKDVAVSYYHFYHMAKVHPEPGTWDSFLEKFMVGEVSYGSWYQHVQEWWELSRTHPVLYLFYEDMKENPKREIQKILEFVGRSLPEETVDFVVQHTSFKEMKKNPMTNYTTVPQEFMDHSISPFMRKGMAGDWKTTFTVAQNERFDADYAEKMAGCSLSFRSEL | – | – | – | – | – | – | 63.0 ± 0.6 µM | 301 ± 89.0 µM | 0.188 µmol/min/mg | 620 µL/min/mg | 80.8 ± 3.3 µM | 0.0986 µmol/min/mg | 1220 µL/min/mg | 0.0927 µmol/min/mg | 1470 µL/min/mg
